“Also recorded” adds a separate entry of the source.
T1: recombinant IL-3Rα ectodomain (Homo sapiens, UniProt P26951)
T1 construct: Immobilisation of recombinant IL-3Rα ectodomain (Sino Biologicals) was done until 761 RU; purchased Sino Biologicals
T1 sequence (P26951 19-305 limits assumed): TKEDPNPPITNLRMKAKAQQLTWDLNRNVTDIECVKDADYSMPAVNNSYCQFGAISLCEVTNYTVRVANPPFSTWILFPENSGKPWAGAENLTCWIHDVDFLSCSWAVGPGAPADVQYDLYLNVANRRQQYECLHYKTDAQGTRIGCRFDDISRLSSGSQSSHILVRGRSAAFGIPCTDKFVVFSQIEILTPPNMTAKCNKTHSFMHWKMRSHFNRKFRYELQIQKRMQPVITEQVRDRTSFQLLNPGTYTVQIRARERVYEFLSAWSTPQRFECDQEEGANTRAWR

B1: CD123#2: anti-IL-3Ra (CD123) Nanobody, SEQ ID NO: 14 (protein)
VHH: EVQLVESGGGSVQAGGSLRLSCTTSGRALNMYVMGWFRQAPGNEREFVAATSSSGGSTSYPDSVKGRFTISRDNAKNTVYLQMNSLKPEDTAAYRCAASPYVSTPTMNILEEYRYWGLGTQVTVSS
B2: CD123#1: anti-IL-3Ra (CD123) Nanobody, SEQ ID NO: 15 (protein)
VHH: EVQLVESGGGLVQAGGSLRLSCAASGSIFSGNVMGWYRRQAPGKEREWVAAIASGGSIYYRDSVKGRFTISRDNAKNTVYLQMNSLKPEDTAVYYCNSHPPTLPYWGLGTQVTVSS
B3: 238D4: full blocking control CXCR4 Nanobody (protein)
VHH: EVQLMESGGGLVQAGGSLRLSCAASGRTFNNYAMGWFRRAPGKEREFVAAITRSGVRSGVSAIYGDSVKDRFTISRDNAKNTLYLQMNSLKPEDTAVYTCAASAIGSGALRRFEYDYSGQGTQVTVSS
B4: CD4#8: anti-CD4 Nanobody, SEQ ID NO: 25 (protein)
VHH: EVQLVESGGGSVQPGGSLTLSCGTSGRTFNVMGWFRQAPGKEREFVAAVRWSSTGIYYTQYADSVKSRFTISRDNAKNTVYLEMNSLKPEDTAVYYCAADTYNSNPARWDGYDFRGQGTQVTVSS
B5: IL12Rb1#30: IL-12Rβ1 specific ligand competing Nanobody (protein)
VHH: EVQLVESGGGLVQTGGSLRLSCAASGRTPRLVAMGWFRQTPGKEREFVGEIILSKGFTYYADSVKGRFTISRVNAKNTITMYLQMNSLKSEDTAVYYCAGRQNWSGSPARTNEYEYWGQGTLVTVSS

How the values were obtained:
HEK293T-wt cells = test: FACS binding to non-transfected HEK293T-wt cells (specificity); parameters: species or system human; settings: data not shown
Experimental: Nanobody binding to membrane associated human IL-3Rα was analysed on HEK293T cells transfected with pcDNA3.1-IL3Rα (NM_002183.2) and non-transfected cells. Surface expression was confirmed by FACS using IL-3Rα specific antibodies (R&D MAB301 and BD Pharminogen 554528), followed by goat anti-mouse PE (Jackson Immuno Research 115-115-164). Briefly, serial dilutions of Nanobodies were allowed to associate for 30 minutes at 4° C. in FACS buffer (PBS 1×+10% FBS+0.05% azide). Following this, cells were washed by centrifugation and probed with 6.7 nM anti-FLAG for 30 minutes at 4° C., to detect bound Nanobody. Detection was done with […] for 30 minutes at 4° C. Cells were washed and incubated with TOPRO3 to stain for dead cells, which are then removed during the gating procedure. The cells were then analysed via a BD FACSArray. The results are depicted in FIG. 1.2.

[1] = target: T1, recombinant IL-3Rα ectodomain; test: SPR (ProteOn) on recombinant IL-3Rα ectodomain; format: binding
Experimental: The affinities of CD123 specific Nanobodies were further investigated via Surface Plasmon Resonance (SPR) at ProteOn. Immobilisation of recombinant IL-3Rα ectodomain (Sino Biologicals) was done until 761 RU. The Nanobodies were applied at a highest concentration of 1 μM, followed by a three-fold titration, covering 5 further concentrations ranging from 1 μM to 4.1 nM. These were then applied in a single injection cycle, utilising the ProteOn's specific one-shot kinetics approach for kinetic analysis. Evaluation of the association/dissociation data was performed by fitting a 1:1 interaction model (Langmuir binding model). […] For CD123 Nanobodies the obtained KD values correlated well with the apparent affinities retrieved by cell binding EC50 values (see Table 3).

[2] = target: T2, CXCR4 on Jurkat E6-1 cells (Homo sapiens, UniProt P61073); test: CXCL12/SDF-1a induced chemotaxis of Jurkat E6-1 cells; format: cell-based; settings: monovalent CXCR4 Nanobodies, Table 4; read-out: Chemotaxis Jurkat IC50
T2 construct: endogenous in cells; host or cells: Jurkat E6-1
Experimental: To verify if bispecific CXCR4-IL3Ra polypeptides show increased affinity and potency on cells expressing both receptors, a CXCR4-dependent functional assay was carried out. To this end SDF-1a dependent chemotaxis on Jurkat E6-1 (CXCR4+/IL3Ra−), and MOLM-13 cells (CXCR4+/IL3Ra+) was performed for direct comparison of cells expressing both or only one receptor. Since the functional blockade is only mediated via CXCR4, avidity by the simultaneous binding of the anti-IL3Ra Nanobody® is expected to translate into increased potency in inhibition of chemotaxis.
Bispecific polypeptides were analyzed for inhibition of CXCL12-induced chemotaxis on cells endogenously expressing CXCR4. As chemoattractant a concentration of 750 pM SDF-1a was used on 100,000 cells/well for the Jurkat cell line, and 500,000 cells/well for the MOLM-13 cell line. On each plate the corresponding monovalent CXCR4 Nanobody was included as reference, allowing to calculate the fold increase of the bispecific within each plate. As additional control 1:1 mixtures of monovalent Nanobodies were included. In Table 9 the respective IC50 values are shown (average of n=3 experiments).
To verify if bispecific CXCR4-IL-3Ra polypeptides show increased affinity and potency on cells expressing both receptors, a CXCR4-dependent functional assay was done. Since MOLM-13 cells express CD4 in conjunction with CXCR4 and CD123, the same experimental set-up was used as described for the CXCR4-CD123 bispecific Nanobodies (see: Example 1.5.5).
Dose-dependent inhibition of CXCL12-induced chemotaxis by the panel of bispecific CD4-CXCR4 Nanobodies was determined on Jurkat (CXCR4+/CD4 low), and Molm-13 cells (CXCR4++/CD4++). As reference anti-CXCR4 antibody 12G5 was included on each plate. […] Remarkably, bispecific constructs in the inverse orientation were able to block CXCR4 function, despite their reduced affinity for CXCR4 due to the unfavourable position, although the blockade was partial. The much larger potency increases observed with Nanobodies targeting the CD4 and CXCR4 combination is most likely related to the higher relative expression levels of CD4 compared to CD123 on the Molm-13 cells.

[3] = target: T3, CXCR4 (membrane extracts of Hek-CXCR4 cells) (Homo sapiens, UniProt P61073); test: [125I]-CXCL12 radio-ligand displacement on membrane extracts of Hek-CXCR4 cells; format: binding
T3 construct: expressed in transfected cells; host or cells: Hek293 (membrane extracts)
Experimental: CXCR4 Nanobodies were analysed in radio-ligand displacement assay on membrane extracts of Hek-CXCR4 cells. The advantage of using the radiolabelled ligand is the increased sensitivity, and the low competitor concentration ensures the determination of Ki values (i.e. the real affinity constant) instead of measuring the IC50 value. This makes it possible to accurately determine the potencies of low affine Nanobodies, even though they may not reach full displacement.
Non-specific binding was determined in presence of 100 nM cold SDF-1. As controls full blocking CXCR4 Nanobodies 238D4 and 281A6 were included. The assay was performed three times, and average percentages of SDF-1 inhibition were calculated.

[4] = target: T4, CXCR4 on Caki-CXCR4 cells (Homo sapiens, UniProt P61073); test: Binding of CXCR4 Nanobodies to Caki-CXCR4 cells
T4 construct: expressed in transfected cells; host or cells: Caki-CXCR4

[5] = target: T4, CXCR4 on Caki-CXCR4 cells; test: Biotinylated SDF-1 displacement on Caki-CXCR4 cells (flow cytometry); format: binding; settings: 30 nM biotinylated SDF-1; read-out: Ligand competition Biotin-SDF-1 IC50
Experimental: CXCR4 Nanobodies were analysed for their ability to compete with the ligand CXCL12 (or SDF-1a) for receptor binding, by displacement of biotinylated SDF-1 on Caki-CXCR4 cells in flow cytometry. To this end serial dilutions of Nanobodies were incubated with 30 nM of biotinylated SDF-1 (R&D Systems Fluorokine kit) on cells, after which ligand binding was visualised using extravidin-PE. The biotin-SDF-1 competitor concentration used in this assay was below the EC50 value obtained in dose-titration, where IC50 values should reflect the Ki.

[6] = tested on: CD8+/CD4− gated and CD4+ gated T cells; test: Multi-colour FACS on TH1 activated T cells gated for CD8 or CD4; format: binding, human; settings: donor D838; anti-flag-APC detection
Experimental: To elucidate if CD4-IL12R bispecific polypeptides preferentially bind to the CD4+/IL12R+ TH1 cell subset within the pool of T cells, Nanobody binding was analysed to a pool of activated T cells gated for either CD8 (detected by Anti-hu CD8 PE-Cy7 conjugated monoclonal antibody (BD 557746) or CD4 (detected by Anti-hu CD4 alexa Fluor 488-conjugated polyclonal antibody (R&D FAB8165G) in a multi-colour FACS experiment. Nanobody binding to the CD8+/CD4− gated cells and to CD4+ gated cells was determined using anti-flag-APC (Prozyme PJ255) detection. In this experiment TH1 activated T cells from the same donor (D838) as shown in FIG. 3.6 were used.

[7] = target: T5, recombinant human CD4 / HIV1 gp120 interaction (Homo sapiens, UniProt P01730); test: gp120 - CD4 competition ELISA; format: binding; settings: 500 nM Nanobody
T5 construct: purchased Invitrogen
Experimental: Therefore a panel of CD4 Nanobodies was analysed for the capacity to block the interaction with the viral gp120 protein. Briefly, CD4 Nanobodies were analysed for the ability to compete with gp120 protein binding to recombinant CD4 in ELISA. Briefly, plates were coated with 20 ug/mL sheep anti-gp120 antibodies. lug/mL of HIV1 gp120 protein was captured for 1 hr at room temperature. Biotinylated recombinant human CD4 (Invitrogen) at 0.5 μg/mL was pre-incubated with 500 nM anti-CD4 Nanobodies, or control antibodies mouse anti-CD4 mAb B-A1 and F5 (Diaclone) and rabbit anti-CD4 pAb (ImmunoDiagnostic Inc) for 1hr, after which mixture was transferred to the coated plates and incubated for 1 hr. Detection of bound CD4 was done with Extravidin-peroxidase conjugate. […] Characteristics of Nanobody CD4 are found in Table 2.1.

cytotoxic CD8+ T cells = test: Binding to isolated CD8+ T cells (FACS); parameters: species or system human; settings: Nanobodies at 250 nM
Experimental: The pool of activated T cells comprises both CD4+ T cells and CD8+ T cells. To confirm the specificity of the anti-CD4 Nanobody and to exclude binding to CD4-negative cells, binding was assessed to cytotoxic CD8+ T cells isolated from human PBMCs using the CD8+ T Cell Isolation Kit (Miltenyi Biotech, 130-096-495), resulting in 94% purity of CD8+ cells. Binding specificity experiments were carried out using Nanobodies at 250 nM. […] Similar data were obtained for the IL12Rβ2 and IL23R Nanobodies.

[8] = target: T6, human IL12Rβ1 extracellular domain Fc-fusion (Homo sapiens, UniProt P42701); test: SPR (Biacore T100) on IL12Rβ1-Fc; format: binding
T6 construct: Fc-fusions of human IL12Rβ1, IL12Rβ2 and IL-23R extracellular domains; purchased R&D Systems #839-B1
Experimental: The precise binding affinities of the purified Nanobodies were determined in a multi-cycle kinetic analysis using Surface Plasmon Resonance analysis (Biacore T100) on Fc-fusions of human IL12Rβ1, IL12Rβ2 and IL-23R extracellular domains (R&D Systems, #839-B1, #1959-B2, #1400-IR). Sensorchips CM5 were immobilized with anti-hIgG antibody (GE Healthcare, BR-1008-39), after which receptors were captured at 5 μg/ml protein and contact time of 120 seconds. Running buffer used was HBS-EP+ (GE Healthcare, BR-1006-69) at 25° C., with a flow-rate of […]. For immobilization by amine coupling, EDC/NHS was used for activation and ethanolamine HCl for deactivation (Biacore, amine coupling kit). Nanobodies were evaluated at a concentration range between 1.37 nM and 3 μM. Nanobodies were allowed to associate for 2 min and to dissociate for 15 min at a flow rate of […]. In between injections, the surfaces were regenerated with a 3 min pulse of 3M MgCl2 and 2 min stabilization period. Evaluation of the association/dissociation data was performed by fitting a 1:1 interaction model (Langmuir binding model) by Biacore TWO software v2.0.3.

T4 sequence (P61073 whole entry): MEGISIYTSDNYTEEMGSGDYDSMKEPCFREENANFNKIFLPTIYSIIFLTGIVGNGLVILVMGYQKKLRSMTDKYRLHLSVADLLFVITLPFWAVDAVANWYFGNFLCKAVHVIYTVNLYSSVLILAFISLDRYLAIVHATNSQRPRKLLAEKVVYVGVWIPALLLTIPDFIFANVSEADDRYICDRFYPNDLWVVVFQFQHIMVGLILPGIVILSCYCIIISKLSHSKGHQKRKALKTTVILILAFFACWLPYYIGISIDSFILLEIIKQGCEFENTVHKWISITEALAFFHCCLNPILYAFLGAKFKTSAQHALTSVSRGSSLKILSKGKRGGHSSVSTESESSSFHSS
T3 sequence (P61073 whole entry): as above
T2 sequence (P61073 whole entry): as above

Row | Molecule | binding to HEK293T-wt cells (HEK293T-wt cells) | SPR - IL-3Ra ka [1] | SPR - IL-3Ra kd [1] | binding to CD4+ gated and CD8+ gated T cells [6] | binding to isolated CD8+ T cells (cytotoxic CD8+ T cells) | other results
1 | B1 | lack of binding | 84000 M⁻¹ s⁻¹ | 0.0014 s⁻¹ |  |  | 
2 | B2 | lack of binding | 1e+06 M⁻¹ s⁻¹ | 0.00081 s⁻¹ |  |  | 
3 | B3 |  |  |  |  |  | IC50 [2]: 7.6 nM; efficacy of SDF-1 displacement ([3]; radio-ligand displacement): full efficacy; Ki ([3]; read-out: Ligand competition [125I]-SDF-1 Ki, 75 pM [125I]-CXCL12): 5.4 nM; EC50 [4]: 3.4 nM; IC50 [5]: 2.1 nM
4 | B4 |  |  |  | strong binding to the CD4+ gated population; also recorded: only a low signal was observed to the CD8+ population | No binding | inhibition of gp120 - CD4 interaction [7]: inhibit the interaction with gp120
5 | B5 |  |  |  | low fluorescence signals to both CD4+ and CD8+ cells | did bind | Binding kinetics (SPR) ka (1/Ms), IL12Rβ1 [8]: 450000 M⁻¹ s⁻¹; Binding kinetics (SPR) kd (1/s), IL12Rβ1 [8]: 0.0015 s⁻¹

From patent publication US20220242958A1, “BISPECIFIC NANOBODIES” (Ablynx N.V., priority 2013, published 2022)
